T1: CTLA4 (human, UniProt P16410 37-162, limits assumed)
T1 sequence (looked up): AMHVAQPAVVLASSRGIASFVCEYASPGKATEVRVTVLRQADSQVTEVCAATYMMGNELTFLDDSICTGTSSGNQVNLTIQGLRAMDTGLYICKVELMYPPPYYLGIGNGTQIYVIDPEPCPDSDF

T2: B7-1 (human, UniProt P33681 35-242)
T2 sequence (looked up): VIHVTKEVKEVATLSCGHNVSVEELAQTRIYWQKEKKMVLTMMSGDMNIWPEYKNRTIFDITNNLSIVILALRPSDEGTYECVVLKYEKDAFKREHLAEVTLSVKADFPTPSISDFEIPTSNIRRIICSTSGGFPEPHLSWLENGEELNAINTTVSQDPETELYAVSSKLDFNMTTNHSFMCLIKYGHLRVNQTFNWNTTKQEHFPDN

T3: ICOS (human, UniProt Q9Y6W8 21-140, limits assumed)
T3 sequence (looked up): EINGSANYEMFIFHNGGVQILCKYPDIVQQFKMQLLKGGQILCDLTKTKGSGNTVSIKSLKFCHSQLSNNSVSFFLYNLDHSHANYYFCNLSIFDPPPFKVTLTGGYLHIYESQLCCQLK

B1: chimeric anti-PD-1 antibody 76G5B3 (antibody, V domains shown)
VH: QVQLVESGGGVVQPGRSLRLSCAASGFTFSDYGFHWVRQAPGKGLEWVAVIWYDGSNEYYTDSVKGRFTISRDNSKNTLYLQMNSLRAEDTAMYFCVVNPFDYWGQGTLVTVSS
VL: DIQMTQSPSSLSAFVGDRVTITCRASQGINHYLAWYQQKPGKAPNLLILAASTLLSGVPSRFGGRGSGTDFTLIISSLQPEDVATYYCQKYDSAPYTFGQGTKLEIK
notes: Purified from hybridoma of Harbour H2L2 mice: human variable regions, rat constant regions
B2: chimeric anti-PD-1 antibody 21G8F11 (antibody, V domains shown)
VH: EVQLLESGGGLAQPGGSLRLSCAASGFSFNTYLMHWVRQAPGKGLEWVSAISGGGGNTYYADSVKGRFTISRDNSKNTLYLQMNSLRAEDTAVYYCAKENRIPVAPFDYWGQGTLVTVSS
VL: DIQMTQSPSTLSASVGDRVTITCRASQSISTWLAWYQQKPGKAPKLLIYKASSLESGVPSRFSGSGSGTEFTLTISSLQPDDLATYYCQQYNSFSWTFGQGTKVEIK
notes: as for B1
B3: chimeric anti-PD-1 antibody 32B5C7 (antibody, V domains shown)
VH: EVQLLESGGGLVQPGGSLRLSCAASGFTFSSYAMSWVRQAPGKGLEWVSTISGSGGTTYYADSVKGRFTISRDNSKNTLYLQMNSLRAEDTAVYYCTLTGDPDYWGQGTLVTVSS
VL: EIVLTQSPATLSLSPGERATLSCRASQSVSSYLAWYQQKPGQAPRLLIYDASKRATGIPARFSGSGSGTDFTLTISSLEPEDFAVYYCQQRNNWPLTFGGGTKVEIK
notes: as for B1

T4 sequence (B0LAJ3 entry or part of it limits assumed): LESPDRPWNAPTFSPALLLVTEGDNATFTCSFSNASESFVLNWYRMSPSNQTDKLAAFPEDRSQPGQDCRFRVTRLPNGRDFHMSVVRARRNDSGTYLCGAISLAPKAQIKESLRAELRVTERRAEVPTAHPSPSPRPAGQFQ
Sequence of CD28 (P10747 19-152 limits assumed): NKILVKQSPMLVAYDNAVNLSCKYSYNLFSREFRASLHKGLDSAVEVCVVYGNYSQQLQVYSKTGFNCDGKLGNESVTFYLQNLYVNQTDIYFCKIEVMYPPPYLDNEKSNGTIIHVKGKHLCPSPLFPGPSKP

The first test has as its target T1, CTLA4. In words: ELISA on coated protein (Table 9). The procedure: (§1) 100 uL of the diluted recombinant proteins were added to each well of 96-well plate. The plates were sealed with plastic film and incubated at 4° C. overnight. The plates were washed twice with wash buffer (PBS+0.01% (v/v) Tween20), and incubated with blocking buffer (PBS+0.01% (v/v) Tween20+1% (w/w) BSA) at room temperature for 2 hours. The blocking buffer was aspirated away, and 100 uL of purified anti-PD-1 antibodies were added to each well and incubated for 2 hours at 37° C. The plates were washed three times with wash buffer (PBS+0.01% (v/v) Tween20). HRP-conjugated secondary antibody (Sigma) was added to each well and incubated for 2 hours at 37° C. After the plates were washed three times with wash buffer, 100 uL TMB substrate was added to each well and incubated for 30 minutes at room temperature. 100 uL stop solution (0.1N HCl) was added to each well to stop the reaction. The absorbance at 450 nm was measured with an ELISA plate reader (384plus SpectraMax, Molecular Devices).
(In general: ELISA stands for enzyme-linked immunosorbent assay.)
On to B1, for which the binding result is recorded as “no binding”.
Still for that read-out and setting: the same measure for B2: “no binding”.
The same measure, in the same setting: next, B3: “no binding”.

A further test concerns the target T2, B7-1. In words: ELISA on coated protein (Table 9). The procedure: as §1
As for B1, the binding result was “no binding”.
The same measure, in the same setting: the same measure for B2: “no binding”; for B3: “no binding”.

The target in a further test is T3, ICOS. The test can be described thus: ELISA on coated protein (Table 9). The procedure:
as §1
On to B1, for which the binding result was “no binding”.
For B2, the binding result is listed as “no binding”.
The same measure, in the same setting: the same measure for B3: “no binding”.

A further test has as its target CD28 (human, UniProt P10747 19-152). The test can be described thus: ELISA on coated protein (Table 9). The procedure:
as §1
As for B1, the binding result was “no binding”.
For B2, the binding result is “no binding”.
B3: the binding result is “no binding”.

A further test addresses T4, cyno PD-1^ECD-hFc protein (cyno monkey, UniProt B0LAJ3 25-167).
T4 construct: Prepared by the method for Immunogen A; also called Cyno Monkey PD-1^ECD-hFc; cyno monkey PD-1-hFc; not shown: human IgG Fc fragment (hFc) and its junction to the ECD
In words: ELISA, coated cyno PD-1ECD-hFc; antibody 0.01 nM. The procedure: as §1
In turn, B1 displayed an OD450 nm of 0.14.
The molecule B2 showed an OD450 nm of 0.27.
Same read-out and setting: the same measure for B3: 0.1.

For another test, the target named is T5, human PD-1^ECD-hFc protein (Immunogen A) (human, UniProt Q15116 25-167).
T5 construct: Biotinylated for the Octet assay; also called PD-1-hFc; hPD-1^ECD-hFc; not shown: human IgG Fc fragment (hFc)
T5 sequence (Q15116 25-167): as the sequence (B0LAJ3 entry or part of it limits assumed) above, with E2D, A10P, L19V, A35T, R75Q counted along it
In words: ELISA, coated human PD-1ECD-hFc; antibody 100 nM. The procedure: as §1
B1 returned an OD450 nm of 3.05.
The molecule B2 came in with an OD450 nm of 2.73.
Same read-out and setting: next, B3: 3.05.

For a further test, the target named is T5, human PD-1^ECD-hFc protein (Immunogen A). In words: ELISA, coated human PD-1ECD-hFc; antibody 0.1 nM. The procedure: as §1
Take B1: the OD450 nm was determined as 2.43.
Same read-out and setting: the same measure for B2: 1.77.
The same measure, in the same setting: next, B3: 2.11.

The target is the same in another test. The test can be described thus: ELISA, coated human PD-1ECD-hFc; antibody 0.01 nM. The procedure: as §1
In turn, B1 returned an OD450 nm of 0.65.
On the same count and under the same terms, next, B2: 0.669; B3: 0.55.

For a further test, the target named is T6, full length human PD-1 on cells (human, UniProt Q15116 25-288).
T6 construct: Also used here for PD-1 on human T cells/PBMC; also called CHO-K1-hPD-1; hPD-1
T6 sequence (Q15116 25-288 limits assumed): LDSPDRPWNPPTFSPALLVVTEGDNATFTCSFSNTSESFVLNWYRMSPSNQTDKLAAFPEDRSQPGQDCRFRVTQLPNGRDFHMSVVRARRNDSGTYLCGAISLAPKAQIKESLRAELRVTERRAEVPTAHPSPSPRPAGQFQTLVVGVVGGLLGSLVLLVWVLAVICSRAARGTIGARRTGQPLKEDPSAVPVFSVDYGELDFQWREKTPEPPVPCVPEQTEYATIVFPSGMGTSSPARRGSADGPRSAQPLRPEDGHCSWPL
In words: flow cytometry, CHO-K1-hPD-1 cells; antibody 0.1 nM. From the text: (§2) CHO-K1 cells were stably transfected with pIRES plasmid containing the nucleic acid sequence encoding full length human PD-1 (see Example 2, step 2) to generate CHO-K1 cells stably expressing human PD-1 (herein referred to as CHO-K1-hPD-1 cells). Other CHO-K1 were stably transfected with pIRES plasmid containing the nucleic acid sequence encoding full length cyno PD-1 to generate CHO-K1 cells stably expressing cyno PD-1 (herein referred to as CHO-K1-cPD-1 cells). CHO-K1-hPD-1 and CHO-K1-cPD-1 cells were cultured and expanded in T-75 culture flasks to 90% confluence. The culture media was aspirated, and the cells were washed twice with HBSS (Hanks Balanced Salt Solution, Invitrogen). The cells were treated with enzyme-free cell dissociation solution (Versene solution, Invitrogen) and collected. The cells were then washed twice with HBSS, cell counts were determined, and cells were resuspended with HBSS at 2×10⁶ cells/mL. Goat serum was added to the cell suspension to a final concentration of 1%, and the cells were blocked for 30 minutes on ice and then washed twice with HBSS. The cells were collected after centrifugation and resuspended in FACS buffer (HBSS+1% BSA, v/v) at 2×10⁶ cells/mL. 100 uL of the cell suspension were then added to each well of 96-well plate. 100 uL of purified anti-PD-1 antibodies from Example 2 were added to each well of the 96-well plate and incubated for 2 hours on ice. […] The samples were washed three times with FACS buffer, and 100 uL fixation buffer (4% paraformaldehyde v/v) were added to each well and incubated for 10 minutes. The cells were then washed twice with FACS buffer and resuspended in 100 uL FACS buffer. The mean fluorescence intensity (MFI) was determined using FACS Calibur (BD), and the results are shown in FIGS. 7-8 and in Tables 10-11.
B1: the Mean fluorescence intensity is 36.2.
For B2, the Mean fluorescence intensity came to 22.8.
Molecule B3 returned a Mean fluorescence intensity of 13.2.

For another test, the target named is T5, human PD-1^ECD-hFc protein (Immunogen A). In words: ELISA, coated human PD-1ECD-hFc; antibody 10 nM. The procedure:
as §1
B1: the OD450 nm amounted to 3.12.
The same measure, in the same setting: next, B2: 2.87; B3: 3.14.

The target in a further test is T4, cyno PD-1^ECD-hFc protein. In words: ELISA, coated cyno PD-1ECD-hFc; antibody 0.1 nM. The procedure: as §1
The molecule B1 returned an OD450 nm of 0.56.
Molecule B2 registered an OD450 nm of 0.972.
Still for that read-out and setting: next, B3: 0.29.

The target of another test is T6, full length human PD-1 on cells. In words: flow cytometry, CHO-K1-hPD-1 cells; antibody 1 nM.
Description: as §2
With B1, the Mean fluorescence intensity was found to be 166.
Still for that read-out and setting: next, B2: 166.
B3 had a Mean fluorescence intensity of 51.1.

Another test shares this target. In words: flow cytometry, CHO-K1-hPD-1 cells; antibody 10 nM.
Description: as §2
Background: A flow cytometer gives signals particle by particle.
On to B1, for which the Mean fluorescence intensity turned out to be 435.
Still for that read-out and setting: next, B2: 696; B3: 156.

Another test has as its target T4, cyno PD-1^ECD-hFc protein. The test can be described thus: ELISA, coated cyno PD-1ECD-hFc; antibody 10 nM. The procedure: as §1
As to B1, the OD450 nm was determined as 1.62.
Molecule B2 yielded an OD450 nm of 2.63.
On to B3, for which the OD450 nm worked out at 1.51.

The values above are taken from US20180214548A1 (SHANGHAI YUNYI HEALTHCARE AND TECHNOLOGY, published 2018).
